Experimental data published in patent US20200024320A1 (published 2020).
Where no end group is shown, it is not given here.

Assays:
[1] = biological target: T1, MBP-RAMP2 ECD [L106R]-(GS)5-CLR ECD-H6 fusion protein (human, UniProt O60895 43-143; Q16602 29-144); experiment: FP competition, FITC-AM W/W probe, RAMP2-CLR ECD
T1 chain: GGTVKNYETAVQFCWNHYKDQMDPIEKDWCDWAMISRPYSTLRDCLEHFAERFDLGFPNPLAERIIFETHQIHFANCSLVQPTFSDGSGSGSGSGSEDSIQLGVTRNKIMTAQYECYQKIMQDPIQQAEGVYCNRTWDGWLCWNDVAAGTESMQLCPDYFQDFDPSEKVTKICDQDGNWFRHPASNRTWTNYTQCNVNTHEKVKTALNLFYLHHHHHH

[2] = biological target: T1, MBP-RAMP2 ECD [L106R]-(GS)5-CLR ECD-H6 …; experiment: AlphaLISA/AlphaScreen competition, RAMP2-CLR ECD
[3] = biological target: T1, MBP-RAMP2 ECD [L106R]-(GS)5-CLR ECD-H6 …; experiment: FP competition; KI at RAMP1-CLR ECD over KI at RAMP2-CLR ECD
[4] = biological target: T1, MBP-RAMP2 ECD [L106R]-(GS)5-CLR ECD-H6 …; experiment: AlphaLISA competition, Biotin-AM probe

Binder	Ki [1] [µM]	pKI [1]	IC50 [2] [µM]	Receptor Selectivity (fold) [3] [fold]	fold increase in affinity (against AM(37-52)NH2) [4] [fold]
FVPTDVGPWSF-NH2 [CGRP(27-37)NH2 [N31D, S34P, K35W, A36S]]	2.45	5.61	–	–	–
FVPTDVGPWSY-NH2 [CGRP(27-37)NH2 [N31D, S34P, K35W, A36S, F37Y]]	0.324	6.49	–	–	–
FVPTDTGPWGY-NH2 [CGRP(27-37)NH2 [N31D, V32T, S34P, K35W, A36G, F37Y]]	14.5	4.84	–	–	–
FVPTDTGPWSF-NH2 [CGRP(27-37)NH2 [N31D, V32T, S34P, K35W, A36S]]	2.75	5.56	–	–	–
DKDNVAPRWLIGPWGF-NH2 [AM(37-52)NH2 [S45W, K46L, S48G, Q50W, Y52F]]	1.25	5.9	–	–	–
DKDNVAPRSLISPWGY-NH2 [AM(37-52)NH2 [K46L, Q50W]]	1.66	5.78	–	–	–
DKFNVAPRSLISPWGY-NH2 [AM(37-52)NH2 [D39F, K46L, Q50W]]	1.83	5.74	–	–	–
DKDNVAPRWWISPWGF-NH2 [AM(37-52)NH2 [S45W, K46W, Q50W, Y52F]]	16.6	4.78	–	–	–
DKDNVAPRSLISPWGF-NH2 [AM(37-52)NH2 [K46L, Q50W, Y52F]]	89.1	4.05	–	–	–
DKDNVAPRWMISPWGF-NH2 [AM(37-52)NH2 [S45W, K46M, Q50W, Y52F]]	7.76	5.11	–	–	–
DKDNVAPRSKISPQGY-NH2 (also called WT (AM(37-52)NH2 scaffold)) [AM(37-52)NH2]	20.4	4.69	5 to 15	–	–
DKDNVAPRTWISPWGY-NH2 [AM(37-52)NH2[S45T, K46W, Q50W]]	12.5	4.9	–	–	–
DKDNVAPRWLISPWGF-NH2 [AM(37-52)NH2 [S45W, K46L, Q50W, Y52F]]	4.07	5.39	–	–	–
DKKNVAPRSKISPQGY-NH2 [AM(37-52)NH2 [D39K]]	6.1	5.22	–	–	–
DKDNVAPRTLISPWGY-NH2 [AM(37-52)NH2[S45T, K46L, Q50W]]	1.57	5.8	–	–	–
DKDNVAPRSKISPFGY-NH2 [AM(37-52)NH2 [Q50F]]	2.14	5.67	–	5	–
DKDNVAPRWKISPWGY-NH2 (also called S45W/Q50W double mutant) [AM(37-52)NH2 [S45W, Q50W]]	0.0813	7.09	–	–	–
DKFNVAPRSLISPWGF-NH2 [AM(37-52)NH2 [D39F, K46L, Q50W, Y52F]]	30.3	4.55	–	–	–
DKDNVAPRSKISPWGY-NH2 [AM(37-52)NH2 [Q50W]]	0.316	6.5	–	–	~100
